Data taken from PMC5750328, “Study on oligomerization of glutamate decarboxylase from Lactobacillus brevis using asymmetrical flow field-flow fractionation (AF4) with light scattering techniques” (Analytical and Bioanalytical Chemistry, 2017).

Key:
[1] = molecular target: the molecule itself; assay: asymmetrical flow field-flow fractionation with UV, MALS and dRI detection (AF4-UV-MALS-dRI); self-association; carrier liquid 10 mM citrate-phosphate buffer pH 8, room temperature; relative amounts from deconvoluted UV fractograms at 280 nm
[2] = molecular target: the molecule itself; assay: asymmetrical flow field-flow fractionation with UV, MALS and dRI detection (AF4-UV-MALS-dRI); self-association; carrier liquid 10 mM citrate-phosphate buffer pH 6, room temperature; relative amounts from deconvoluted UV fractograms at 280 nm

B1: glutamate decarboxylase (LbGadB) from Lactobacillus brevis DSM 1269, recombinant (enzyme, UniProt A9ZM78 1-480, looked up)
chain: MMNKNDQETQQMINNVDLEKTFLGSVEAGQSLPTYTLPDDPMAPDVAAQLVEHYRLNEAKANQNLATFCTTQMEPQADELMKNALNTNAIDKSEYPKTAAMENYCVSMIAHLWGIPDNEKIYDDFIGTSTVGSSEGCMLGGLALLHSWKHRAKAAGFDIEDLHSHKPNLVIMSGYQVVWEKFCTYWNVEMRQVPINGDQVSLDMDHVMDYVDENTIGIIGIEGITYTGSVDDIQTLDNLVTEYNKTATMPVRIHVDAAFGGLFAPFVDGFNPWDFRLKNVVSINVSGHKYGMVYPGLGWIVWRHDTADILPAEMRFQVPYLGKTVDSIAINFSHSGAHISAQYYNFIRFGLSGYKTIMQNVRKVSLKLTAALKTYGIFDILVDGSQLPINCWKLADDAPVGWTLYDLESELAKYGWQVPAYPLPKNRDDVTISRIVVRPSMTMTIADDFLDDLKLAIDGLNHTFGVTTTVDQDNKTTVRS
notes: glutamate decarboxylase LbGadB of Lactobacillus brevis DSM 1269; gene amplified from genomic DNA with a forward primer that holds the ATG (NdeI site) and a reverse primer with an XhoI site, cloned in pET21b; gene deposited as GenBank KX417371; Oligomeric state depends on pH: dimer at pH 7-8, hexamer at pH 6, so copies is left empty; the whole gene appears to have been cloned; Cloning NdeI/XhoI in …
- stoichiometry N [1]: 2
- stoichiometry N [2]: 6
